The source of these data is publication PMC11188170, “A comprehensive analysis of the WRKY family in soybean and functional analysis of GmWRKY164-GmGSL7c in resistance to soybean mosaic virus”.

The target in this data set is GmWRKY164 (Glycine max, UniProt K7MND9 1-149). Nature of the data set: EMSA; 6 ug protein; 200-fold unlabelled probe used as competitor; LightShift Chemiluminescent EMSA kit binding reaction, 20 min, 6% native PAGE; buffer, salt, pH and temperature not stated. The note with it: protein: recombinant; tags: His; label: 5' biotin; blunt. For orientation: A gel shift assay detects complexes by their altered migration in electrophoresis.
Sequence of GmWRKY164 (K7MND9 entry or part of it): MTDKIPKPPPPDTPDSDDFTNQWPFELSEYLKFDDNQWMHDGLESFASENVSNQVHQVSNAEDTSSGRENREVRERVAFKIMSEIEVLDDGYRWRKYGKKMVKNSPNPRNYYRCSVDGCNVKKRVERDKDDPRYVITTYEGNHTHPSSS

B1: GmGSL7c promoter W-box probe (dsDNA)
DNA 1: TAGCCCAACTCATCAGAAGAAGGTCAATGTAATAGTA
DNA 2: TACTATTACATTGACCTTCTTCTGATGAGTTGGGCTA
Consider B1, for which the binding result was “binds”.
